From patent US11673916B2, “Neuroprotective peptides and methods of their use” (University of Pittsburgh—Of the Commonwealth System of …, priority 2020, dated 2023)

Biological target: T1, Kv2.1 surface clusters (Rattus norvegicus, UniProt P15387)
T1 construct: expressed in transfected cells; host or cells: primary rat cortical neurons (E16-17 Sprague-Dawley), Lipofectamine 2000
T1 sequence (P15387 1-857): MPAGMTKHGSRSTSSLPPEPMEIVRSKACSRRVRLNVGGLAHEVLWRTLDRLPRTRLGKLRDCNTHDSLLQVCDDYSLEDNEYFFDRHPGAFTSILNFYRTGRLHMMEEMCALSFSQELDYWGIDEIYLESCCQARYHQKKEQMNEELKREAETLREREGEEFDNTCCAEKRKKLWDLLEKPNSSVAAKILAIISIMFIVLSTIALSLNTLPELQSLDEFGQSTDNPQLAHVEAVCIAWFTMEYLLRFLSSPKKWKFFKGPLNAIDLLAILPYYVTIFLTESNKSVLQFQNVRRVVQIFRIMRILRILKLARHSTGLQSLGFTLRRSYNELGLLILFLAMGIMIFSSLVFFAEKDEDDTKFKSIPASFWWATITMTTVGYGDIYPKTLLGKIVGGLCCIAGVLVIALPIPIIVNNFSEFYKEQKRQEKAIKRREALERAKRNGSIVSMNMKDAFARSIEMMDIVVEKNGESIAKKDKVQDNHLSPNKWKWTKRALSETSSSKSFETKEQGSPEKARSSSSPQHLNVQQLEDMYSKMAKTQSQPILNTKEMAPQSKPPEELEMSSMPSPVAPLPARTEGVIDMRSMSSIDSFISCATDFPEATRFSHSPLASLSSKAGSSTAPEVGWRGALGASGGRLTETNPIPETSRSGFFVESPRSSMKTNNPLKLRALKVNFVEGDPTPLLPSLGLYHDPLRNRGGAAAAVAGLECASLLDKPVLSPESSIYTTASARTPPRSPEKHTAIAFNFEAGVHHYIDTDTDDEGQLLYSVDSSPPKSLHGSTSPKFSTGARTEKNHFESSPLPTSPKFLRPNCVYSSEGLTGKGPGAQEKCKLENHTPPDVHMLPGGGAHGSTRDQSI
Test: Kv2.1 surface cluster density in live Kv2.1-GFP-transfected cortical neurons treated with TAT-linked peptides
Format: cell-based
Experimental: In vitro experiments utilized primary cortical neuronal cultures prepared from embryonic day 16-17 Sprague-Dawley rats of either sex in a protocol described previously (McCord et al., J Physiol (Lond). 592: 3511-3521, 2014). Timed-pregnant rats (Charles River Laboratories, Wilmington, Mass.) were sacrificed by CO2 inhalation. Embryonic cortices were dissociated with trypsin (0.6 mg/mL) and cells plated in sterile 6-well plates on poly-L-ornithine-coated glass coverslips at a density of 670,000 cells per well. Cytosine arabinoside (1-2 μM) was utilized to inhibit non-neuronal proliferation on day 14 in vitro (DIV); cultures were utilized at 21-25 DIV.
; Invitrogen, Carlsbad, Calif.). […]; Thermo Fisher Scientific, Waltham, Mass.). […]. Cultures were utilized 18-24 hours following transfection. cDNA amounts for each transfection experiment are described below for each figure. FIG. 1: 0.375 μg/well Kv2.1-GFP plasmid, 0.495 μg/well pcDNA3 vector plasmid, and 0.63 μg/well of either DP-1 or Sc-1, or Kv2.2 CT-expressing plasmid. FIGS. 2, 8, 9, 10, 12: 0.375 μg/well Kv2.1-GFP plasmid, 0.15 μg/well tdTomato plasmid (from Gerhart Ryffel; Addgene plasmid #30530), and 0.975 μg/well pcDNA3 vector plasmid.
To analyze Kv2.1 distribution in live primary cortical neurons, cells were transfected with both a tdTomato construct and a GFP-tagged Kv2.1 construct (O'Connell, et al., J Neurosci. 26: 9609-9618, 2006) and imaged on a Nikon A1+ confocal microscope (Nikon, Tokyo, Japan). Cells were chosen at random by looking only at the tdTomato signal (561 nm), in order to avoid bias. At least three separate culture dates were used per experiment and three coverslips were transfected per condition each time. For these experiments, “n” refers to the total number of cells imaged. Five to 15 optical sections (0.5 μm) capturing the cell surface were obtained of single cells at 60× magnification (Schulien et al., J Physiol (Lond). 594: 2647-2659, 2016), creating a maximum-intensity projection (MAX-IP) of Kv2.1-GFP distribution. To analyze Kv2.1 distribution in the cerebral cortex of fixed brain slices, 51-54 image fields were obtained at 60× magnification across 18 sections from three fixed mouse brains per treatment (total of 6 animals). Image fields were captured by first focusing on an area of superficial cortex closest to the cover glass. Next, 24 optical sections (0.5 μm) were obtained moving deeper into the tissue in order to produce a 12 μm maximum-intensity projection for analysis of Kv2.1 distribution. Laser power, HV (gain), offset, pinhole size, and all camera parameters were kept identical between all samples in a given experiment. Nikon Instruments Software Advanced Research (NIS-Elements AR) was utilized to analyze GFP-tagged Kv2.1 channel cluster distribution. For live images of transfected neurons, object count parameters were customized to define a Kv2.1 cluster as an area of high intensity GFP fluorescence (compared to background), measuring 0.05 μm^2 or larger (Schulien et al., J Physiol (Lond). 594: 2647-2659, 2016). Kv2.1 cluster density was calculated by normalizing the number of Kv2.1 clusters counted to the somatic area of each neuron (#Kv2.1 clusters/μm^2). Due to high variability in GFP-Kv2.1 expression between individual neurons, intensity thresholding required cell-specific local-background subtraction. In each neuron analyzed, two populations on Kv2.1-GFP expression were first noted—(a) highly localized signals of clustered Kv2.1 channels, and (b) diffuse background staining that represents freely-dispersed, conducting Kv2.1 channels on the plasma membrane. A small region of interest (ROI) within region (b) was set as the background subtraction standard of the image, creating an optimal signal-to-noise ratio for clustered Kv2.1 channels. […]

[1] = 3 μM peptide, two-hour treatment, mean±SEM (FIG. 2B)
[2] = 10 μM peptide, two-hour treatment, mean±SEM (FIG. 2B)

Sequence | mean Kv2.1 surface cluster density [1] | mean Kv2.1 surface cluster density [2] | mean Kv2.1 surface cluster density (10 μM, 2 h after initiation of treatment, mean+/-SEM (FIG. 9)) | mean Kv2.1 surface cluster density (10 μM, 24 h after initiation of treatment, peptide removed after two hours, mean+/-SEM (FIG. 9)) | time-course of Kv2.1 surface cluster dispersal (10 μM, before, 60 and 120 minutes post-treatment (FIG. 8)) | concentrations at which effective as in vitro declustering tool (hypothesized from the 3 μM and 10 μM results)
YGRKKRRQRRRDFSSIST [TAT-Sc-2, TAT-linked scramble control peptide] | 0.15±0.01 #Kv2.1 clusters/μm^2 of neuronal soma | 0.16±0.02 #Kv2.1 clusters/μm^2 of neuronal soma | – | – | – | –
YGRKKRRQRRRSIDSFTS [TAT-DP-2, TAT-linked declustering peptide 2] | 0.07±0.02 #Kv2.1 clusters/μm^2 of neuronal soma | 0.08±0.01 #Kv2.1 clusters/μm^2 of neuronal soma | 0.06±0.01 #Kv2.1 clusters/μm^2 of neuronal soma | 0.09±0.01 #Kv2.1 clusters/μm^2 of neuronal soma | time-dependent | 3 to 10 µM
